Test results from paper PMC11585616 (2024).
Where two headings read alike, the source gives them in different places.

Legend:
Assay in all cases: ITC
VcSiaP [1] = molecular target: T1, VcSiaP (Vibrio cholerae, UniProt Q9KR64 23-321)
VcSiaP [2] = molecular target: T1, VcSiaP; remark: listed apart in the source
HiSiaP = HiSiaP (Haemophilus influenzae, UniProt P44542 24-329)
Chain of HiSiaP (P44542 24-329): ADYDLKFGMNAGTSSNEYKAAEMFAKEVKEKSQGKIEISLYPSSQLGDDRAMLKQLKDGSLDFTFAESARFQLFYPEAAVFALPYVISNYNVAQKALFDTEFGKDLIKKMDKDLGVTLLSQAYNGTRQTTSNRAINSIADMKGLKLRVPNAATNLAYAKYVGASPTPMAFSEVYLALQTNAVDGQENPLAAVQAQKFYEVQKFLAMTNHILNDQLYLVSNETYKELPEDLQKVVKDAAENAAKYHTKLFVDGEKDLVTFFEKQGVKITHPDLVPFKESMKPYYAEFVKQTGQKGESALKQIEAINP

T1 sequence (Q9KR64 23-321): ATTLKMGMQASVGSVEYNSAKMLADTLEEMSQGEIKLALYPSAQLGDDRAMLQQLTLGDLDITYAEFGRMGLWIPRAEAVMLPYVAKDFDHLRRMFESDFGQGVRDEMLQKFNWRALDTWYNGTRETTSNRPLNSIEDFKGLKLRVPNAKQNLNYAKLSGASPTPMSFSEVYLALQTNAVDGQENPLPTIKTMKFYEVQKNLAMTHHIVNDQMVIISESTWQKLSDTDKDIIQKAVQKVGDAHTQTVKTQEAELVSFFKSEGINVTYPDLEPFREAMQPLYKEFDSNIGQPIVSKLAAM

B1: VHHVcP #2 (VHH)
VHH: QVQLVESGGRLVQTGGSLRLSCAASGDTFSNYVMGWFRQAPGKEREFVAAISWTGANSYYADSVAGRFTISRDNAKNTVALQMNSLKPEDTAIYYCAADHFHVTHRKYDYWGQGTQVTVSS
VcSiaP [1]
  Kd: 5.61 nM
VcSiaP [2]
  Kd: 1.97 nM
HiSiaP
  Kd: 10700 nM
